The assay concerns the target FGFR1c extracellular domain-IgG fusion protein (human) (UniProt P11362). The assay is described as follows: BIAcore real-time kinetic analysis, immobilized FGFR1c ECD, no heparin; approximate apparent affinity.

Where no end group is shown, it is not given here.

Sequence of FGFR1c extracellular domain-IgG fusion protein (human) (P11362 22-377): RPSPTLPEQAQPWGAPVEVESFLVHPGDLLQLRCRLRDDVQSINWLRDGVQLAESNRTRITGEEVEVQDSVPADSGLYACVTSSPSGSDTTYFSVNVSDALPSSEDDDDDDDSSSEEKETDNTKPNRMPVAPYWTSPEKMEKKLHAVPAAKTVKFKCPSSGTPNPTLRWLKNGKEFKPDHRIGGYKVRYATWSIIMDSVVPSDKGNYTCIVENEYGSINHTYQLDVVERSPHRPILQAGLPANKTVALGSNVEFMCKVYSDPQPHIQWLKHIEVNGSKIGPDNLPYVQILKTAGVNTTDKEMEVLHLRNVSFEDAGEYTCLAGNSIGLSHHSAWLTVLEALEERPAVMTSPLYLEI

For the molecule AESGDDYCVLVFTDSAWTKICDWSHFRN (Fc fusion, part only; not given: linkers and human IgG1 Fc, not shown: a dimerising Fc or GST, cysteine pairing not given here; also: homodimer, fused to Fc of human IgG1) [C19-Ig fusion protein], the Kd worked out at 90 nM.

Values taken from patent US20040054131A1.
